Target: the molecule itself
Experiment: crystal structure

B1: [3SCC-(I9H)3] artificial copper peptide (ArCuP), de novo designed trimeric coiled coil peptide (peptide)
chain: GIAAIKQEHAAIKQEIAAIKQEIAAIKWEG
modifications: not fully specified; acetylated N-terminal Gly (Ac-); amidated C-terminal Gly (-CONH2)
  stoichiometry N: 3
